Laboratory results reported in patent US20220144922A1 (Adimab, published 2022).

B1: ADI-15633 (antibody, V domains shown)
VH: QVQLVQSGAEVKKPGESLKISCKGSGYTFRMYWIGWARLLPGKGLEWIGIIYPGDSDTRYNPSLQGQVTMSVDKSINTAYLQWGSLKASDSAIYYCARLRLHPQSGMDVWGQGTLVTVSS
VL: NFMLTQPHSVSESPGKTVVISCTRSSGSIAGYYVQWYQHRPGSSPTTVIYEDDQRPSGVPDRFSGSVDSSSNSASLTISGLKTEDEADYYCQSYDNAIWVFGGGTKLTVL
notes: IgG
B2: ADI-15658 (antibody, V domains shown)
VH: EVQLVESGGGLVQPGRSLRLSCVTSGFGFDDYAMHWVRQAPGKGLEWVSGIGWNSGGIGYADSVKGRFSISRDNAKNSLYLQMNSLRPEDTAFYYCVKDGTPIAVAGYFEYWGQGTLVTVSS
VL: SYELTQPPSASGTPGQRVTISCSGGRSNIGNNYVYWYQQLPGTAPKLLIYRHDQRPSGVPDRFSGSKSGTSASLAINGLRSEDEADYFCAVWDDSLSCYVFGAGTKLTVL
notes: IgG
B3: ADI-15641 (antibody, V domains shown)
VH: QVQLVESGGGVVQPGRSLRVSCAASGFDFSNYAMHWVRQAPGKGLEWVALISYDGNNKVYADSVKGRFTVSRDNSKNTLYLQMNSLRPEDTAVIYCAKDGYLAPDFWGQGTLVTVSS
VL: QSVLTQPASVSGSPGQSIIISCTGTSSDVGEYDYVSWYQHHPHKAPKLIIYEVSNRPSGVSNRFSGSKSGNTASLTISGLQAEDEADYYCSSYTSSSGQAFGTGTKVTVL
notes: IgG; also called Antibody Number 205
B4: ADI-15629 (antibody, V domains shown)
VH: EVQLVESGGGLVQPGGSLRLSCAASGFTFSDFAMSWVRQAPGKGLEWVSLIKSSDYAYYADSVRGRFTISRDNSKNTLYLRMNSLRADDTAVYYCAKDADFWSGDSYNGGYNFDSWGQGTLVTVSS
VL: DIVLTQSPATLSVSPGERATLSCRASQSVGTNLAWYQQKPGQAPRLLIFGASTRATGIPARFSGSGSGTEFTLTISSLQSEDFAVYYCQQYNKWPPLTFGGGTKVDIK
notes: IgG
B5: ADI-15626 (antibody, V domains shown)
VH: EVQLVESGAEVKKPGSSVKVSCKASGGTFSSYEISWVRQAPGQGLEWMGGINPMFGAANYAQKFQDRVTIIADKSTGTVYMELSSLRSEDTALYYCARERYPSTDDYYRSGRYYGEWGQGTTVTVSS
VL: ETTLTQSPSTLSASVGDRVTITCRASQSIRSWLAWYQQKPGKAPKLLIYRASTSDSGVPSRFSGSGSGTEFTLTISSLQPDDFAIYYCQQYNSIPVTFGQGTKLEIK
notes: IgG
B6: ADI-15005 (antibody, V domains shown)
VH: QVQLVESGPALVKPTQTLTLTCSFSGFSLTTRRMCVSWIRQTPGKALEWLARIDWDDDKDYSTSLKTRLTISKDTSKNQVVLTMTNMDPVDTATYYCARTHIYDSSGYYLYYFDYWGQGTLVTVSS
VL: DIVLTQSPSSLSASIGDRVTITCRASQTIASYLNWYQQKPGKAPELLIYAATNLQSGVPSRFSGSGSGTDFTLTISSLRPEDFASYYCQQSYSSPWTFGQGTKVDIK
notes: IgG; also called Antibody Number 124
B7: ADI-15640 (antibody, V domains shown)
VH: QVQLVESGPALVKPTQTLTLTCAFSGFSLTTRGMSVSWIRQPPGKALEWLARIDWDDDKYYSTSLKTRLTISKDTSKNQVVLTMSNMDPVDTATYYCARASLYDSGGYYLFFFDYWGQGTLVTVSS
VL: DIVMTQSPSSLSASVGDRVTITCRASQSIGSYLNWYQQKPGKVPKLLIYAASNLQGGVPSRFRGSGSGTDFTLTISNLQPEDFASYYCQLSYSSLWTFGQGTKVEIK
notes: IgG; also called Antibody Number 204
B8: ADI-15627 (antibody, V domains shown)
VH: EVQLVESGGGVVQPGRSLRLSCAASGFTFSDYAMHWVRQAPGKGLEWVAVIWYDGGNKYYADSAKGRFTISRDNSKNTLYLQMNSLRAEDTAVYYCAKDRGSIWNVGDGMDVWGQGTTVTVSS
VL: QPVLTQPPSVSVAPGQTARVTCGGNNIGAKSVHWYQQKPGQAPVLVVDDDTDRPSGIPERFSGSNSGNTATLTISRVEAGDEADYYCQVWDASIGPLYVFGTGTKLTVL
notes: IgG; also called Antibody Number 192
B9: ADI-15646 (antibody, V domains shown)
VH: EVQLLESGGGLIQPGGSLRLSCGASGFTVTGNYMHWVRQAPGKGLEWVSVIYAGSSTYYADSVRGRFTISRDKARNTLFLQMNRLRAEDTAVYYCARAGVVGEDRSGWYGPDYFHGLDVWGQGTTVTVSS
VL: ETTLTQSPGTLSLSPGERATLSCRASQSIRNNYLAWYQQKPGQPPRLLIYGESRRATGIPGRFSGSGSGTDFTLTISSLEPEDFAVYYCQQYGGSPYTFGQGTKVDIK
notes: IgG; also called Antibody Number 210

How the values were obtained:
[1] = molecular target: T1, postfusion RSV F ectodomain (F ΔFP), subtype A (respiratory syncytial virus subtype A, UniProt P03420 26-109; P03420 147-524); test: BLI, IgG on sensor
T1 construct: extracellular domain; also called Postfusion subtype A
Method: (§1) IgG binding to DS-Cav1 and FA FP was determined by BLI measurements using a FortéBio Octet HTX instrument (Pall Life Sciences). […] Data was analyzed using the ForteBio Data Analysis Software 7. The data was fit to a 1:1 binding model to calculate an association and dissociation rate, and KD was calculated using the ratio kd/kₐ.

[2] = molecular target: T2, prefusion-stabilized RSV F ectodomain (DS-Cav1), subtype B (respiratory syncytial virus subtype B); test: BLI, IgG on sensor
T2 construct: extracellular domain; also called Prefusion subtype B
Method: as §1

[3] = molecular target: T3, postfusion RSV F ectodomain, subtype B (respiratory syncytial virus subtype B); test: BLI, IgG on sensor
T3 construct: extracellular domain; also called Postfusion subtype B
Method: as §1

[4] = molecular target: RSV F protein of subtype A strain A2, on virus (respiratory syncytial virus subtype A …, UniProt P03420 26-574); test: cell-based or functional assay
[5] = molecular target: RSV F protein of subtype B strain 18537, on virus (respiratory syncytial virus subtype B …, UniProt P13843 26-574); test: cell-based or functional assay

Binder	Kd [1] [nM]	Kd [2] [nM]	Kd [3] [nM]	Neut IC50 (ug/ml) subtype A [4] [µg/mL]	Neut IC50 (ug/ml) subtype B [5] [µg/mL]
B1	0.104	0.896	0.111	12.8	> 10
B2	0.18	1.81	0.169	6.25	> 10
B3	0.161	0.136	0.136	0.184	0.483
B4	0.228	0.36	0.213	0.085	0.088
B5	0.546	3.39	0.653	14.2	> 10
B6	0.237	1.4	0.253	2.16	2.53
B7	0.169	1.49	0.196	> 10	4.82
B8	0.158	1.61	0.137	2.17	2.42
B9	0.318	2.62	3.18	0.846	> 10
